T1: Streptomyces Subtilisin Inhibitor (SSI), SSI-like protein produced by PG1181
T1 chain: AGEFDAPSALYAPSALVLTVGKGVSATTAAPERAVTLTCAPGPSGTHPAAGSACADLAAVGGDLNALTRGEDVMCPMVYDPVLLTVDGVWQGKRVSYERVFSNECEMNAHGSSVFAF


Experiments:
[1] = target: protease (not named in the Ki determination); assay: enzyme inhibition kinetics with succinyl-Ala-Ala-Pro-Phe-p-nitroanilide in 50 mM Tris pH 8; steady-state rate against the rate without inhibitor; equations of Goldstein
[2] = target: T1, Streptomyces Subtilisin Inhibitor …

Row | Ki [1] [nM] | Binder | protease activity (hydrolysis of N-succinyl-Ala-Ala-Pro-Phe-p-nitroanilide, increase in absorbance at 410 nm) [2]
1 | 3 | M73P D83C SSI (protein) AGEFDAPSALYAPSALVLTVGKGVSATTAAPERAVTLTCAPGPSGTHPAAGSACADLAAVGGDLNALTRGEDVMCPPVYDPVLLTVCGVWQGKRVSYERVFSNECEMNAHGSSVFAF | –
2 | – | subtilisin BPN′ (protein) AQSVPYGVSQIKAPALHSQGYTGSNVKVAVIDSGIDSSHPDLKVAGGASMVPSETNPFQDNNSHGTHVAGTVAALNNSIGVLGVAPSASLYAVKVLGADGSGQYSWIINGIEWAIANNMDVINMSLGGPSGSAALKAAVDKAVASGVVVVAAAGNEGTSGSSSTVGYPGKYPSVIAVGAVDSSNQRASFSSVGPELDVMAPGVSIQSTLPGNKYGAYNGTSMASPHVAGAAALILSKHPNWTNTQVRSSLENTTTKLGDSFYYGKGLINVQAAAQ | SSI inhibits subtilisin BPN′ and a Y217L variant of BPN′
3 | – | Y217L variant of subtilisin BPN′ (protein) AQSVPYGVSQIKAPALHSQGYTGSNVKVAVIDSGIDSSHPDLKVAGGASMVPSETNPFQDNNSHGTHVAGTVAALNNSIGVLGVAPSASLYAVKVLGADGSGQYSWIINGIEWAIANNMDVINMSLGGPSGSAALKAAVDKAVASGVVVVAAAGNEGTSGSSSTVGYPGKYPSVIAVGAVDSSNQRASFSSVGPELDVMAPGVSIQSTLPGNKYGALNGTSMASPHVAGAAALILSKHPNWTNTQVRSSLENTTTKLGDSFYYGKGLINVQAAAQ | SSI inhibits subtilisin BPN′ and a Y217L variant of BPN′
